According to the nanobody polyreactivity screen of Harvey et al. (2022):

Assay: yeast display, Sf9 membrane polyspecificity reagent, FACS + sequencing; frameworks hold sequencing errors
Summary of the method: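 A synthetic nanobody library was expressed on Saccharomyces cerevisiae BJ5465 by galactose induction for 36–48 hours. The library was stained for 1 hour at 4 °C with 10% biotinylated, detergent-solubilized Sf9 membrane reagent and enriched with streptavidin microbeads before FACS. Low and high (top ~1%) gates were set on anti-HA fluorescence for expression and streptavidin fluorescence for reagent binding, and each polyreactivity label reflects the gate of origin.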

Sequence	polyreactivity (PSR sort gate)
QVQLVESGGGLDQAGASLRLSCPASGRTFNANVMGWYRQAPGKERELVAAISTGGSTNYADSVKGRFTISRDNAKNTVYLQMNSLKPEDTAVYYCAAAIRVPQGGYYYWGQGTQVTVSS	low polyreactivity
HVQLVESGGGLVQAGGSLRLSCADSGRILYYYAMRWYIQEPGKERELVAAINSSGGSPYYADSVKGRFTISRDIAKNTVYLQMNSLKPEDTAVYYGAAEYQVQGYDYWGQGSQVTVSS	high polyreactivity
QVQLVESGGGLVQAGGSLRLSCAASGGIFGYYAMAWYRQAPGKEREFVAAITLSGGRSYYADSVKGRFTISRDNAKNTVYLQMNSLKPEDTAVYYCNAYPYYLVRNMDSWGQGTQVTVTS	high polyreactivity
QVQLVESGGGLVQAGGSLRLSCAASGFTFKFNAMGWYRQAPGKERELVAAISYSGGSTYYADSVKGRFTISRDIAKNTVYVQMNSLKPEDTAVYYCAARAYWYGASYYYWGQGTQVTVSS	high polyreactivity
QVQLVESGGGLVQAGGSLRLSCAASGSTVYYNAMGWYRQAPGKERELVADISWRGGITYYADSVKGRFTISRDNAKNTVYLQMNSLKPAETAVYYCNADAESFDDGYWGQGTQVTVSS	low polyreactivity
QVQLVESGGGLVQAGGSLRLSCAASGFTFVTYAMGWYRQAPGKERELVAAISSSGRTYYADSVKGRFTISRDNAKNTVYLQMNSLKPEDTAVYYCAVQGAWRSFYYWGQGTQVTVSS	high polyreactivity
QVQLVESGGGLVQAGGSLRLSCAASGRTFVYNAMGWYRQAPGKERELVAAISSSGGSTRYADSVKGRFTISRDNAKNTVYLQMNSLKPEDTAVYYCNRLRYSNRYDTWGQGTQVTVSS	high polyreactivity
QDQLVESGGGLVQAGGSLRLSCAASGSIFARYAMGWYRQAPGKERELVAAINSTVSTNYADSVKGRFTISRDNAKNTVYLQMNSLKPEDTAVYYCAVDIVRGGRDSWGQGTQVTVSS	low polyreactivity
QVQLVESGGGLVQAGGSLRLSCAASGRIFGHNAMGWYRQAPGKERELVAAISYRGCSTYYADSVKGRCTISRDNAKNTVYLQMNSLKPVDTAVYYCAARWNRGRYDYWGQGTEVTVSS	high polyreactivity
QVQLVESGGGLVQAGGSLRLSCAASGRTFVHYTMGWYRQAPGKERELVAAISGTGTSTYYADSVKGRFTISRDNAKNTVYLQMNSLKPEDTAVYDCARDPYFGFLIGYPRRDYWGQGTQVTVSS	low polyreactivity
QFQLVESGGGLDQAGGSLRLSCAASGITVYYYALGCYRQAPGKERELVAAITSSGGSTYYADSVKGRFTISRDNAKNTVYLQMNSLKPEDTAVYYCAARSYRGSSTYQGHGYWGQGTQVTVSS	high polyreactivity
QVQLVESGVGLVQAGGSLRLSCAASGITISYYSKGWSRQEPGKEREFVAAISWSVGSTYYADSVKGRFTISRDNAKNTVYLQMNSLKPEDTAVYYCAAEDGYWPTYYYWGQGTQVTVSW	high polyreactivity
QVQLVESAGGLVQAGGSLRLSCAPSGRIFGRYAMGWYRHAPGKERELVAAISFNGGSTSYADSVNGRFTISRDNAKNTVYLQMNTLKTEYTAVYYCAAKYRGFNYWGQGTQVTVSS	high polyreactivity
QVQLVESGGGLVQAGGSLRLSCAASGRTLYNYAKGWYRQAPGKERELDASITWSGGSTYYADSVKGRFTISRDYANNTVYLQMNSLKPEDTAVYYCAAESSPGTFVRYGYRRYYYWGQGTQVTVSS	low polyreactivity
QVQLVESGGGLVQAGGSLRLSCAASGSTFGWYAMGWYRQAPGKERELVAAISNSGGSTYYADSVKGRFTISRDNAKNTVYLQMNSLKPEDTAVYYCATYHTTSYYQLVFDYWGQGTQVTVSS	low polyreactivity
QVQLEESGGGLVQAGGSLRLSCAASGRTFYIYVMGWYRPAPGKERELVASITKRVGGTFYADSVKGRFTISGDNAKNTVYLQMNSLKPEDTAVYYCNARARKSIRVGGYNYWGQGTQVTVSS	high polyreactivity
QVQLVESGGGLVQAGGSLRLSCAASGRTLTQNAMGWYRQAPGKERELVATISWTAGSTYYADSVKGRFTISRDNAKNTVYLQMNSLKPEDTAVYYCAAVVFYSIYDYWGQGTQVTVSS	low polyreactivity
QVQLVESGGGLVQAGGSLRLSCAASGSIFAYYAMGWYRQAPGKERELVASISSVGTTKYADSVKGRFTISRDNAKNTVYLQMNSLKPEDTAVYYWATDGYSPAAFDYWGQGTQVTVSS	low polyreactivity
QVQLVESGGRLVQGGGSLRLSCAASGITFKGYTMGWYRQAPGKERELVATISRGGRTYADSVKGRFTISRDNAKNTVYLQMNSLKPEDSAVYYCAADKYWAQNDYWGQGTQVTVSS	low polyreactivity
QVQLVESGGGLVQAGGSLRLSCAASGRIFQFYAMGWYRQAPGKERELVAAITTGGSTKYADSVKGRFTISRDNAKNTVYLQMNSLKPEDTAVYYCAARAHYYVYRPGIRRYDYWGQGTQVTVSS	high polyreactivity
QDQLVESRGGIVQAGGSLRLSCAASGSTFRLYAMGWYRQAPGKERELVAAISSGGTTKYADSVKGRFTNSRDNAKNTVYLQMNSLTPEDTAVYYCNAVYHWGNPGEYATLPRYDYWGQGTQVNVSS	high polyreactivity
QVQLQESGGGRMQAGGSQRLSCAASGSISYYSDMGWYRQAPGKEREFVAGIGYGTTTNYADSVKGRFTTSRDNAKNTVYLQMISMKPEDTAVYYCAAYQGNGYEFYYWGQGTQVTVRS	low polyreactivity

Sequence	polyreactivity (PSR sort gate)
QGQLVESGGGLVQAGGSLRLSCAASGSIFVQNAMGWYRQAPGKEREFVAVINSGDSTNYADSVKGRFTISRDIAKNTVYLQMNSLKADDTAVYYCAVDDVSYYYLRAYNYELSWYGSGLDYWGQGTQVTVSS	low polyreactivity
QVQLVESGGGLVQAGGSLRLSCAASGFIFTPYTMGWYRQAPGKERELVAAITDGSSTYYADSVKGRFTISRDNAKNTVYLQMNSLKPEDTAVYYCAAVPRYQYGYWGQGTQVTVSS	low polyreactivity
QVQLVESGGGLVQAGCSLRLSCAASGRTFGVYAMGWYRQAPGKERELVAGIRWRGGSTYYADSVKGRFTISRDNAKNTVYLQMNSLKPEDTAVYYCAADVYLVKYDYWGQGTQVTVSS	low polyreactivity
QVQLVESGGGLFQEGGSLRLSCAASGFTFLVYAKGWYRQAPGKERQLVAAITWSGDSTYYADSVKGRFTISRDNAKNTVYLQMNSLKPEDTAFYYCAAAYRYGTLYYYWGQGTQVTVSS	low polyreactivity
QVQLVESGGGLVQAGGSLRLSCAASGRTFYAYTRGWYRQAPGKERELVAAISSSGTRTYYADSVKGRFTISRDNAKNTVYLQMNSLKPEDTAVYDCAKGTQRFRGLDHGYDYWGQGTQVTVSS	high polyreactivity
QVQLVESGGGLVQAGGSLRLTCAASGRTLRNYAMGWYRQPPGKERELVATITYRGGSTYYADSVKGRFTISRDNAKNTVYLKRNCLKPEDTAVYYCAARTSSYSFQYAYNYWGQGTQVTVSS	high polyreactivity
QVQLVESGGGLVQAGGSLRLSCAASGSTFNVYAMGWYRQAPGKERELVARISWSGGNTYYADSVKGRFTISRDNAKNTVYLQMNSLKPEDTAVYYCATKGYTGYAYRYGYWGQGTQVTVSS	high polyreactivity
QVQLVESGGGLVQAGGSLRLSCAASGLIFYYYAMGWYRQAPGKERELVAAITRGGRTYYADSVKGRFTISRDNAKNTVYLQMNSLKPEDTAVYYCNTVSVKSGLDYWGQGTQVTVSS	high polyreactivity
QVQHVESGGGLVQAGGSLRLSCAASGFIFRSYAMGWFRQAPGKERELVAAISNGVITNYADSVKGRFTISRDNSKNTVYLQRNSLKPEDTAVYYCDADYNSQDDYWGQGTQVTVSS	low polyreactivity
QVQLVESGGGLVQAGGSLRLSCAASGRIFVYNAMGWSRQAPGKVRELVASITSSGGSTSYADSVKGRFTISRDNAKNTVYLQMNSLKPEDTAVYSCAADVQPDTRSTPEMDYWGQGTQVTVSS	low polyreactivity
QVQLVESGGGLVQAGGSLRLSCAASGSIFHWYAMGWYRQAPGKERELVAAINWSGGSTYYADSVKGRFTISRDNAKNTVYLQMNSLKPEDTAVYYCNKAYVSRYDYWGQGTQVTVSS	high polyreactivity
QVQLVESGGGLVQAGGSLRLSCAASGSLFRYYAMGWYRQAPGTERELVAAITGRGGSTYYADSVKGRFTISRDNAKNTVYLQMNSLKPEDTAVYYCADYIDANVHRFDYWGQGTQVTVSS	low polyreactivity
QVQLVESGGGLVMAVGSLRLSCAASGSTFAGNAMGWYRQAPGKERELVAAISIVGSTSYADSVKGRFTISRDNAKITFYLQMNSLKPEDTAVYDCAAEWVTSYLNYYHWGQGTQVTVSS	low polyreactivity
QVQLVESGGGLVQAGGSLRLSCAASGSTFRGYTMGWYRQAPGKEREFVATISSRGGSTNYADSVKGRFTISRDNAKNTVYLQMNSMKPEDTAVYYCNVRRVWWEWPRGDSWGQGTQVTVSS	high polyreactivity
QVQLVESGGGLVQAGGSHRLSCAASGSISRRYAMGWYRQAPGKERELVAAINQSGGRTYYADSVKGRFTISRDNAKNTVYLQMNSLKPEDTAVYYCAARLSGYDYWGQGTQVTVSS	high polyreactivity
QVQLVESGGGLVQAGGSLRLSCAASGYTFRNNAMGWYRQAPGKEREFVAAISRSGARTYYADSVKGRFTISRDNAKNTVYLQMNSLKPEDTAVYYCAARESFEYDSWGQGTQVTVSS	high polyreactivity
QVQLVESGGGLVQAGGSLRLSCAASGSIFVRYAMGGYRQAPGKERELVASIRSRGDSTYYADSVKGRFTISRDNAKNTVYLQMISLKPEDTAVYFFADRRYPPRMDYWGQGTQVTVSS	high polyreactivity
QVQLVESGGGLVQAGGSLRLICAASGITFSTYTMGWYRQAPRKEREFVAAISSRGGSTYYADSVKGRFTISRDNAKNTAYLQMNRLIPEVTAVYYCAAALVAPFDYWVQGTQVTVSS	high polyreactivity
QVQLVESGGGLVQAGGSLRLSCAASGFTFTTYVMGWYRQAPGKERELVAAISRRGTSTRYADSVKGRFTISRDNAKNTVYLQMNSLKPEDTAVYYCAADRPYSIVPYDYWGQGTQVTVSS	high polyreactivity
QDKLVDSGGGLVQAGGSLRLSCAASGFIFGKYTMVWYRQAPGKERELVAAINRRGGSTYYADSVKGRFTISRDNAKNTVYLQMNSLKPEDTAVYYCAKDGYSLDRYYWGQGTQVTVSS	high polyreactivity
QVQLVESGGGLVQAGGSLRLSCAASGIIFSHYAMGWYRQAPGKERELVAAISSRGGSTYYADSVKGRFTISRDNAKNTVYLQMNSLKPEDTAVYYCNAKWTSHGTYAEDYWGQGTQVTVSS	high polyreactivity
